The results in this text go back to patent publication US11376333B2, “mTG substrates for covalent conjugation of compounds” (COVALAB, priority 2013, dated 2022).

Experiment [1] concerns the target T1, microbial transglutaminase (mTG) (Streptomyces mobaraensis, UniProt P81453).
T1 construct: purchased Covalab, France opr 0054
T1 sequence (P81453 77-407): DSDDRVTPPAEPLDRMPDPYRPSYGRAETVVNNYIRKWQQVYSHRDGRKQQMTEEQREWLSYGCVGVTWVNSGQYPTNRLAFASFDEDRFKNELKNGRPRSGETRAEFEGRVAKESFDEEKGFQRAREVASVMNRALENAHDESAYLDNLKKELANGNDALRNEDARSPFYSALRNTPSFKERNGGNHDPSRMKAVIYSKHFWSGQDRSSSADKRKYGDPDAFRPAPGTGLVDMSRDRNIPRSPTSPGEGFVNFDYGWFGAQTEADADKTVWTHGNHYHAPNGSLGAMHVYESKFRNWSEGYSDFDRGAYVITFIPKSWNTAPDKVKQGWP
Put plainly: mTG-mediated incorporation of biotin-X-cadaverine into peptides coupled on Covabtest plate. In kind it is biochemical. The conditions noted are these: 15 nmoles peptide coupled to plate, biot-cad 0.1 mg/ml, mTG 10 ng/well. On the procedure: The coupling method was previously described by the Applicant (V. Thomas et al, 2004) and also in the corresponding data sheet of CovAbtest-Plate™ which is commercially available from Covalab (Ref #opr0004). Briefly, in separate tubes a solution mixture containing 150 μM of each peptide dissolved in 10 mM phosphate buffer pH5, 5 mM EDAC and 5 mM NHS was incubated for 30 min under gentle shaking. The resulting activated NHS-carboxyl C-terminal moiety of each peptide (15 nmoles) was used to be conjugated in each well of CovAbtest-Plate™ previously deprotonated during 15 min with 150 μl 0.6% sodium bicarbonate per well. The microtiter plate was then incubated during 2 hrs at room temperature and washed extensively with Tris Buffer Saline.
For this experiment we used the same procedures described by V Thomas et all (2004) and also in the Covalab's commercialized kit (opr0033). Briefly the Lyophilized transglutaminase was reconstituted in 40 mM tris buffer pH 8 and 50 μl of each mTG at 200 ng/ml and at 40 ng/ml were added in the wells containing 50 μl of biotin-X-cadaverine. The enzymatic mixture was incubated for 15 min at room temperature under gentle shaking. Then the plates were washed 3 times with TBS-Tween20 followed by the addition of 100 μl of diluted HRP labeled streptavidine ( 1/2000 in TBS Tween20, 0.5% BSA) in each well. After 30 min at room temperature and 3 washings in TBS-Tween20, 100 μL of TMB substrate were added and after 5 min the colour development was stopped using 100 μl of 0.5 M sulfuric acid. Absorbances at 450 nm were measured using a microplate reader (Multiskan, Labsystems, Helsinki, Finland).
To screen the peptide library (Covalab) and identify the putative new substrates of mTG we used Covabtest-peptide (described in B-I-1) in which the peptides were covalently coupled into the plates and the amine substrate Biotin-cadeverine (biot-cad) was free in solution. In this experiment 15 nmoles of each peptide (table 2) were covalently conjugated to microtiter plate and the incorporation of biot-cad (0.1 mg/ml) catalyzed by mTG (10 ng/well) was determined following the experiment described in B-II-1. Among all the peptides tested only few peptides were recognized by mTG as Gln (Q) donor to incorporate biot-cad as shown in the FIG. 1. The enzymatic activity was different between the peptide substrates. […] When Q is replaced by N (peptide HH12N11) no reactivity of the mTG was observed confirming the specificity of the enzyme to Gln donor. Moreover, if the reactivity of the 4 peptides (HH12Q11, DH6Q7, HG14Q11 and WG10Q7) is compared, it can be observed that the reactivity of the Gln depends on its position in the peptide sequence. In the most reactive peptides Q is located at the C-terminal. […]

In experiment [2] the target is T1, microbial transglutaminase (mTG). As to the kind of experiment: Colorimetric assay: mTG incorporation of biotinylated peptides into immobilized spermine, apparent Km. The class given is biochemical. The conditions noted are these: biotinylated peptides, spermine plate. From the text:
To produce the Covabtest-spm plate, the procedure previously described in Mily et al (2009) was used.
For the screening of the peptide listed in table 2 (Biotinylated peptides) the inventors used our colorimetric assay to measure transglutaminase 2 (TG2) cross linking activity (Mily et al, 2009) and commercialized under ref opr0033 in which mTG was used instead of TG2 and described in this experience. The principle of the method is based on the transamidation activity of mTG, using covalently coupled spermine to carboxy-substituted polystyrene plates and biotinylated peptides. The assay consists of the incorporation of the glutamine gamma-carboxamide group into the immobilized spermine. The amount of biotinylated peptide bound to the plate, as measured by the activity of streptavidin-peroxidase, is directly proportional to the TG activity. Absorbance was measured at 450 nm using the microplate reader.
In order to compare the affinity of mTG to the preferred substrate, the peptides were used at different concentrations ranging from 160, 80, 40, 20, 10, 5, 2.5 and 0 μM. Then the apparent Km were determined for each peptide and were calculated by Lineweaver-Burk method (1/Absorbance=f(1/[mTG (μM)]).
In this experiment, spermine was conjugated into the plate as described in B-II-4. Biotinylated peptides described in table 3 were incubated with mTG at different concentration (160, 80, 40, 20, 10, 5, 2.5 and 0 μM). […] Even if E seems to abolish the reactivity of the peptides this cannot be due to the negative charge only but also to the nature of the amino acides at the position X+1, X+2 and X+3. […] This is confirmed with LN-11Q8Q10 peptide.

With HDLMWPDVYSQH (Peptide HH12Q11), the “reactivity as Gln donor for mTG incorporation of biot-cad” value in experiment [1] is “good substrate for mTG”. Further, the “reactivity of peptide with mTG (text on Table 3)” value in experiment [2] is “highly reactive with mTG”.
